Laboratory results as given in article PMC11267363, “Supramolecular Nanofibers Ameliorate Bleomycin‐Induced Pulmonary Fibrosis by Restoring Autophagy” (Advanced Science, 2024).

Molecular target: T1, Recombinant human TRB3 (tribbles homolog 3) (human, UniProt Q96RU7 1-358)
T1 construct: pseudokinase tribbles homolog 3 (TRB3), human, recombinant; as I recall, the catalogue suffix H09B stands for a His and GST tagged protein made in baculovirus-infected insect cells (surmise); also called TRB3 protein; human TRB3 protein; source: bought: Sino Biological (10731-H09B)
T1 sequence (looked up): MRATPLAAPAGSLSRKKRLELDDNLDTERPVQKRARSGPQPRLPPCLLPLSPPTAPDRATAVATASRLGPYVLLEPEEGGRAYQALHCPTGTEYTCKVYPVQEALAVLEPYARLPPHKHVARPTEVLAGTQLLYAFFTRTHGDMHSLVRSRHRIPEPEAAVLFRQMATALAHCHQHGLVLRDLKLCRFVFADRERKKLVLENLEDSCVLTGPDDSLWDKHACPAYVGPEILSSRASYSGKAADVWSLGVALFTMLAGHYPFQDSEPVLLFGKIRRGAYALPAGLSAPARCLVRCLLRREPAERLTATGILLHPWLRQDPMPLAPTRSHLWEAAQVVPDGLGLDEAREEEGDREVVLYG
Assay: MST; Monolith NT.115; Ac-GFFY-A2 or A2 against human TRB3 protein or BSA (negative control); which partner was labelled is not told
Conditions: both partners purified

Kd: ~3.21 µM
B1: A2 peptide (TRB3-binding peptide fragment derived from p62) (peptide)
peptide: GGWLTRLLQTK
notes: also called non-self-assembling peptide A2; source: synthetic peptide (SPPS, purified by HPLC)
